Data from patent publication US20230125301A1 (published 2023).
Positions count from the first letter of the chain named. Read-outs that look alike come from different tables or passages of the source. Values belong to the binder of their own block, whether it stands above or below them.

Assays:
Assay in all cases: FACS binding, CHO-K1 cells
human PD-L1 [1] = target: T1, human PD-L1 (human, UniProt Q9NZQ7 19-290)
human PD-L1 [2] = target: T1, human PD-L1; remark: listed apart in the source
human PD-L1 [3] = target: T1, human PD-L1; remark: listed apart in the source

T1 sequence (Q9NZQ7 19-290): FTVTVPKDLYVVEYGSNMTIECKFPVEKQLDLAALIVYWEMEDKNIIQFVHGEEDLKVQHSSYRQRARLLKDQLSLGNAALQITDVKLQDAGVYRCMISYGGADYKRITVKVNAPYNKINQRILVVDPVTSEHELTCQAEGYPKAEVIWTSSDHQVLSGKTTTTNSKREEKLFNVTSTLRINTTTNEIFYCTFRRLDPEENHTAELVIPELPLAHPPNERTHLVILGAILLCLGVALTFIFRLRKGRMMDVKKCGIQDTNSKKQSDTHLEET

B8: CLDN18H-E-pdl1b (bispecific antibody)
heavy: not shown
light: DIVMTQSPLSLPVTPGEPASISCKSSQTLLNSGNQKNYLTWYLQKPGQSPQLLIYWASTGESGVPDRFSGSGSGTDFTLKISRVEAEDVGVYYCQNAYFYPFTFGGGTKVEIKRTVAAPSVFIFPPSDEQLKSGTASVVCLLNNFYPREAKVQWKVDNALQSGNSQESVTEQDSKDSTYSLSSTLTLSKADYEKHKVYACEVTHQGLSSPVTKSFNRGEC
EC50 (human PD-L1 [3]): 0.296 nM

B9: CLDN18H-G9-pdl1a (bispecific antibody)
heavy: not shown
light: B8 light
EC50 (human PD-L1 [1]): 0.111 nM

B11: CLDN18H-E-pdl1a (bispecific antibody)
heavy: not shown
light: B8 light
EC50 (human PD-L1 [3]): 1.46 nM

B12: CLDN18H-E-pdl1c (bispecific antibody)
heavy: not shown
light: B8 light
EC50 (human PD-L1 [3]): 0.317 nM

B13: CLDN18H-G15-pdl1a (bispecific antibody)
heavy: not shown
light: B8 light
EC50 (human PD-L1 [1]): 0.219 nM | EC50 (human PD-L1 [3]): 0.525 nM

B15: CLDN18H-G12-pdl1a (bispecific antibody)
heavy: not shown
light: B8 light
EC50 (human PD-L1 [1]): 0.281 nM

B17: CLDN18L-E2-pdl1a (bispecific antibody)
heavy: not shown
light: DIVMTQSPLSLPVTPGEPASISCKSSQTLLNSGNQKNYLTWYLQKPGQSPQLLIYWASTGESGVPDRFSGSGSGTDFTLKISRVEAEDVGVYYCQNAYFYPFTFGGGTKVEIKRTVAAPSVFIFPPSDEQLKSGTASVVCLLNNFYPREAKVQWKVDNALQSGNSQESVTEQDSKDSTYSLSSTLTLSKADYEKHKVYACEVTHQGLSSPVTKSFNRGECERKSSVESPPSPEVQLVESGGGLVQPGGSLRLSCAASGRTFVTYGMGWFRQAPGKGREFVSAISWSGSMTSYGDSVKGRFTISRDNAKNTLYLQMNSLRPEDTAVYYCAAALGAVVYTTREPYTYWGQGTLVTVSS
EC50 (human PD-L1 [2]): 0.333 nM

B18: CLDN18L-E4-pdl1a (bispecific antibody)
heavy: not shown
light: B17 light with R222S, S224Y, S225G, V226P, E227P
EC50 (human PD-L1 [2]): 0.424 nM

B20: CLDN18L-E2a-pdl1a (bispecific antibody)
heavy: not shown
light: B17 light with S225G, S228G, S231G
EC50 (human PD-L1 [2]): 0.439 nM

Continued, values first:

EC50 (human PD-L1 [1]): 0.0898 nM
B1: pdl1a-G12-CLDN18L (bispecific antibody)
heavy: not shown
light: EVQLVESGGGLVQPGGSLRLSCAASGRTFVTYGMGWFRQAPGKGREFVSAISWSGSMTSYGDSVKGRFTISRDNAKNTLYLQMNSLRPEDTAVYYCAAALGAVVYTTREPYTYWGQGTLVTVSSGGGGSGGGGSGSDIVMTQSPLSLPVTPGEPASISCKSSQTLLNSGNQKNYLTWYLQKPGQSPQLLIYWASTGESGVPDRFSGSGSGTDFTLKISRVEAEDVGVYYCQNAYFYPFTFGGGTKVEIKRTVAAPSVFIFPPSDEQLKSGTASVVCLLNNFYPREAKVQWKVDNALQSGNSQESVTEQDSKDSTYSLSSTLTLSKADYEKHKVYACEVTHQGLSSPVTKSFNRGEC

EC50 (human PD-L1 [2]): 0.394 nM
B2: CLDN18L-Ea-pdl1a (bispecific antibody)
heavy: not shown
light: DIVMTQSPLSLPVTPGEPASISCKSSQTLLNSGNQKNYLTWYLQKPGQSPQLLIYWASTGESGVPDRFSGSGSGTDFTLKISRVEAEDVGVYYCQNAYFYPFTFGGGTKVEIKRTVAAPSVFIFPPSDEQLKSGTASVVCLLNNFYPREAKVQWKVDNALQSGNSQESVTEQDSKDSTYSLSSTLTLSKADYEKHKVYACEVTHQGLSSPVTKSFNRGECEPKSSDKGHGGPPGPEVQLVESGGGLVQPGGSLRLSCAASGRTFVTYGMGWFRQAPGKGREFVSAISWSGSMTSYGDSVKGRFTISRDNAKNTLYLQMNSLRPEDTAVYYCAAALGAVVYTTREPYTYWGQGTLVTVSS

EC50 (human PD-L1 [3]): 0.516 nM
B3: CLDN18L-E-pdl1b (bispecific antibody)
heavy: not shown
light: B2 light with G228T, G230T, G231S, G234S, M292S

EC50 (human PD-L1 [1]): 0.808 nM
B4: CLDN18L-G12-pdl1a (bispecific antibody)
heavy: not shown
light: DIVMTQSPLSLPVTPGEPASISCKSSQTLLNSGNQKNYLTWYLQKPGQSPQLLIYWASTGESGVPDRFSGSGSGTDFTLKISRVEAEDVGVYYCQNAYFYPFTFGGGTKVEIKRTVAAPSVFIFPPSDEQLKSGTASVVCLLNNFYPREAKVQWKVDNALQSGNSQESVTEQDSKDSTYSLSSTLTLSKADYEKHKVYACEVTHQGLSSPVTKSFNRGECGGGGSGGGGSGSEVQLVESGGGLVQPGGSLRLSCAASGRTFVTYGMGWFRQAPGKGREFVSAISWSGSMTSYGDSVKGRFTISRDNAKNTLYLQMNSLRPEDTAVYYCAAALGAVVYTTREPYTYWGQGTLVTVSS

EC50 (human PD-L1 [1]): 0.418 nM | EC50 (human PD-L1 [2]): 0.591 nM
B5: CLDN18L-G9-pdl1a (bispecific antibody)
heavy: not shown
light: DIVMTQSPLSLPVTPGEPASISCKSSQTLLNSGNQKNYLTWYLQKPGQSPQLLIYWASTGESGVPDRFSGSGSGTDFTLKISRVEAEDVGVYYCQNAYFYPFTFGGGTKVEIKRTVAAPSVFIFPPSDEQLKSGTASVVCLLNNFYPREAKVQWKVDNALQSGNSQESVTEQDSKDSTYSLSSTLTLSKADYEKHKVYACEVTHQGLSSPVTKSFNRGECGGGGSGGGSEVQLVESGGGLVQPGGSLRLSCAASGRTFVTYGMGWFRQAPGKGREFVSAISWSGSMTSYGDSVKGRFTISRDNAKNTLYLQMNSLRPEDTAVYYCAAALGAVVYTTREPYTYWGQGTLVTVSS

EC50 (human PD-L1 [1]): 0.404 nM | EC50 (human PD-L1 [3]): 0.456 nM
B6: CLDN18L-G15-pdl1a (bispecific antibody)
heavy: not shown
light: DIVMTQSPLSLPVTPGEPASISCKSSQTLLNSGNQKNYLTWYLQKPGQSPQLLIYWASTGESGVPDRFSGSGSGTDFTLKISRVEAEDVGVYYCQNAYFYPFTFGGGTKVEIKRTVAAPSVFIFPPSDEQLKSGTASVVCLLNNFYPREAKVQWKVDNALQSGNSQESVTEQDSKDSTYSLSSTLTLSKADYEKHKVYACEVTHQGLSSPVTKSFNRGECGGGGSGGGGSGGGGSEVQLVESGGGLVQPGGSLRLSCAASGRTFVTYGMGWFRQAPGKGREFVSAISWSGSMTSYGDSVKGRFTISRDNAKNTLYLQMNSLRPEDTAVYYCAAALGAVVYTTREPYTYWGQGTLVTVSS

EC50 (human PD-L1 [1]): 0.107 nM | EC50 (human PD-L1 [3]): 0.131 nM
B7: pdl1a-E-CLDN18L (bispecific antibody)
heavy: not shown
light: EVQLVESGGGLVQPGGSLRLSCAASGRTFVTYGMGWFRQAPGKGREFVSAISWSGSMTSYGDSVKGRFTISRDNAKNTLYLQMNSLRPEDTAVYYCAAALGAVVYTTREPYTYWGQGTLVTVSSEPKSSDKTHTSPPSPDIVMTQSPLSLPVTPGEPASISCKSSQTLLNSGNQKNYLTWYLQKPGQSPQLLIYWASTGESGVPDRFSGSGSGTDFTLKISRVEAEDVGVYYCQNAYFYPFTFGGGTKVEIKRTVAAPSVFIFPPSDEQLKSGTASVVCLLNNFYPREAKVQWKVDNALQSGNSQESVTEQDSKDSTYSLSSTLTLSKADYEKHKVYACEVTHQGLSSPVTKSFNRGEC

EC50 (human PD-L1 [1]): 0.0989 nM
B10: pdl1a-G12-CLDN18H (bispecific antibody)
heavy: not shown
light: B8 light

EC50 (human PD-L1 [1]): 0.143 nM | EC50 (human PD-L1 [3]): 0.0745 nM
B14: pdl1a-E-CLDN18H (bispecific antibody)
heavy: not shown
light: B8 light

EC50 (human PD-L1 [1]): 0.134 nM
B16: pdl1a-G15-CLDN18H (bispecific antibody)
heavy: not shown
light: B8 light

EC50 (human PD-L1 [2]): 0.452 nM
B19: CLDN18L-E4a-pdl1a (bispecific antibody)
heavy: not shown
light: B17 light with R222S, S224Y, S225G, V226P, E227P, S228G, S231G

EC50 (human PD-L1 [1]): 0.147 nM
B21: pdl1a-G15-CLDN18L (bispecific antibody)
heavy: not shown
light: EVQLVESGGGLVQPGGSLRLSCAASGRTFVTYGMGWFRQAPGKGREFVSAISWSGSMTSYGDSVKGRFTISRDNAKNTLYLQMNSLRPEDTAVYYCAAALGAVVYTTREPYTYWGQGTLVTVSSGGGGSGGGGSGGGGSDIVMTQSPLSLPVTPGEPASISCKSSQTLLNSGNQKNYLTWYLQKPGQSPQLLIYWASTGESGVPDRFSGSGSGTDFTLKISRVEAEDVGVYYCQNAYFYPFTFGGGTKVEIKRTVAAPSVFIFPPSDEQLKSGTASVVCLLNNFYPREAKVQWKVDNALQSGNSQESVTEQDSKDSTYSLSSTLTLSKADYEKHKVYACEVTHQGLSSPVTKSFNRGEC
